The series concerns the molecule itself. Nature of the series: crystal structure.

B1: mouse RIG-I CARDs (residues 1-189), bacterially expressed (domain or fragment, UniProt Q6Q899 1-189, looked up)
chain: MTAEQRQNLQAFRDYIKKILDPTYILSYMSSWLEDEEVQYIQAEKNNKGPMEAASLFLQYLLKLQSEGWFQAFLDALYHAGYCGLCEAIESWDFQKIEKLEEHRLLLRRLEPEFKATVDPNDILSELSECLINQECEEIRQIRDTKGRMAGAEKMAECLIRSDKENWPKVLQLALEKDNSKFSELWIVD
B1: the “stoichiometry N” value came to 4.

As a reminder, the stoichiometry N is a count of units in the complex or per binding partner.

The values above are taken from paper PMC6200327 (The Biochemical journal, 2018).
